Laboratory results from the supplement of paper PMC10126150.
± gives the standard deviation of the averaged measurements.

test system: ATP; test: switch fluorescence ratio, 500 uM ATP over buffer (Cy3 cluster intensity, sum of 5 cycles each) (fold (ratio)); higher = stronger signal-on switching upon ATP binding; sequences stand for … in TCGTCGGCAGCGTCAGATGTGTATAAGAGACAGTTTTTTTTTTTTTTTTTTTTTTTTT…TC; details: aptamer strand: ATP DNA aptamer (quencher-CACCTGGGGGAGTATTGCGGAGGAAGG + anchor), 100 nM annealed; ATP concentration: 500 uM
Method in brief: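 Per cluster, summed Cy3 intensity from the target cycles was divided by that from the buffer cycles to give the fluorescence ratio, then averaged per switch-domain sequence. Clusters outside 100-1000 RFU were excluded. The Cy3-labelled switching-strand clusters, on a modified Illumina MiSeq flow-cell, were annealed to 100 nM quencher-labelled ATP aptamer and imaged in selection buffer, then after 15 min with 500 uM ATP at 22 °C, for five cycles with NaOH stripping and re-annealing between them.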
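Also: ATP exposure 15 min at 22 °C before imaging.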

Sequence	switch fluorescence ratio
ATCAGACGGG	1 ± 0.025
ATCAGAGGTG	1.14 ± 0.0059
ATCAGCGACT	0.993 ± 0.043
ATCAGGTAAG	0.9682 ± 0.0024
ATCAGTATAT	0.992 ± 0.021
ATCAGTTGTT	1.0008 ± 0.00044
ATCATAAGTT	1.01 ± 0.016
ATCATAATCT	1.013 ± 0.0034
ATCATACTTG	1.03 ± 0.029
ATCATATTCG	0.99 ± 0.02
ATCATCGGGG	0.988 ± 0.043
ATCATGCCTA	0.989 ± 0.033
ATCATGTGCG	1.01 ± 0.033
ATCCAGACGG	1.04 ± 0.026
ATCCAGGTTG	1.68 ± 0.11
ATCCATATT	1.03 ± 0.029
ATCCCCGACC	1.25 ± 0.063
ATCCGCTTTA	3.28 ± 0.25
ATCCGGGTGT	2.74 ± 0.17
ATCCGGTCGC	1.04 ± 0.029
ATCCGGTCGG	1.03 ± 0.066
ATCCGTGAGA	1.05 ± 0.02
ATCCGTGATG	1.11 ± 0.051
ATCCTCTCGG	1.05 ± 0.017
ATCCTTGTTG	0.965 ± 0.027

Sequence	switch fluorescence ratio
ATCGACATAT	1.043 ± 0.0031
ATCGACATTA	1.01 ± 0.017
ATCGACGTGT	1.02 ± 0.02
ATCGAGGGA	0.995 ± 0.061
ATCGAGTAAG	1.02 ± 0.029
ATCGATGAGG	0.991 ± 0.058
ATCGATTGT	0.973 ± 0.028
ATCGCAATTG	1.89 ± 0.36
ATCGCGGGTT	0.99 ± 0.05
ATCGCGTCGT	0.995 ± 0.035
ATCGCTATGT	1.05 ± 0.043
ATCGCTGGGA	0.972 ± 0.02
ATCGCTTACA	1.02 ± 0.028
ATCGGAAAG	1.65 ± 0.92
ATCGGAATGT	1.012 ± 0.0063
ATCGGAGCCA	1.02 ± 0.047
ATCGGAGGGC	1.02 ± 0.013
ATCGGAGGGG	0.957 ± 0.015
ATCGGAGTTC	0.989 ± 0.047
ATCGGATATA	0.989 ± 0.015
ATCGGATGTA	1.016 ± 0.0084
ATCGGCAGGG	0.981 ± 0.052
ATCGGGGTAA	1.04 ± 0.068
ATCGGGTGCG	0.981 ± 0.022
ATCGGTACGT	1.03 ± 0.021

Sequence	switch fluorescence ratio
ATCGGTATCC	1.035 ± 0.0064
ATCGGTCCTT	1.03 ± 0.027
ATCGGTCTGT	0.975 ± 0.018
ATCGGTCTTG	1 ± 0.004
ATCGGTTACC	1.011 ± 0.0045
ATCGTAAAAG	0.9926 ± 0.0011
ATCGTAGATT	0.993 ± 0.016
ATCGTAGGTT	0.972 ± 0.015
ATCGTATGGT	1 ± 0.023
ATCGTATTGT	0.993 ± 0.03
ATCGTCATGG	1.01 ± 0.012
ATCGTCGGTA	1.03 ± 0.017
ATCGTCGGTT	0.973 ± 0.013
ATCGTGGGAT	1.01 ± 0.0081
ATCGTTAGAA	1.006 ± 0.0025
ATCGTTGGCT	1.04 ± 0.07
ATCTAACGGC	1.01 ± 0.0079
ATCTAATGCC	1.01 ± 0.042
ATCTAGTACG	1.02 ± 0.044
ATCTCCGGGG	1.04 ± 0.016
ATCTCGCGCA	1.36 ± 0.11
ATCTCGGGTG	1.01 ± 0.043
ATCTCTGTAA	1.264 ± 0.0068
ATCTCTTTTA	0.954 ± 0.0099
ATCTGAGTAG	0.999 ± 0.023

Sequence	switch fluorescence ratio
ATCTGAGTTG	0.989 ± 0.031
ATCTGATATT	1.01 ± 0.033
ATCTGCAACA	1.62 ± 0.042
ATCTGCTAGG	1.01 ± 0.031
ATCTGGGGCC	1.01 ± 0.012
ATCTGGTGCA	1.055 ± 0.0059
ATCTGTCAAG	0.9954 ± 0.0058
ATCTTCCAGG	1.614 ± 0.0089
ATCTTCGGGC	0.9869 ± 0.0065
ATCTTTATAT	0.994 ± 0.019
ATCTTTGTTG	0.987 ± 0.018
ATGAAATTGT	1.02 ± 0.033
ATGAACAGGG	1.01 ± 0.05
ATGAAGCGGT	1.04 ± 0.083
ATGAATGGAG	1.01 ± 0.026
ATGAATGTTA	1.006 ± 0.0075
ATGAATTCTG	1.059 ± 0.0049
ATGACAGCGG	1.01 ± 0.11
ATGACGCTGG	1.03 ± 0.13
ATGACGGGGT	1.05 ± 0.085
ATGACGGTAG	0.97 ± 0.062
ATGAGAACTC	1.024 ± 0.0051
ATGAGAAGTG	0.969 ± 0.014
ATGAGCAAGA	1.49 ± 0.015
ATGAGCCGAG	0.9983 ± 0.009

Sequence	switch fluorescence ratio
ATGAGCTGGG	0.966 ± 0.015
ATGAGGAGGA	1.04 ± 0.013
ATGAGGGTCT	0.999 ± 0.044
ATGAGGGTGC	0.994 ± 0.054
ATGAGGTTCA	0.9759 ± 0.0049
ATGAGGTTTC	0.989 ± 0.016
ATGAGTAAAG	0.999 ± 0.025
ATGAGTATTG	0.9888 ± 0.0078
ATGAGTCTAA	0.992 ± 0.011
ATGAGTGGGG	1.01 ± 0.029
ATGAGTTTTT	1.01 ± 0.054
ATGATAAAAT	1.11 ± 0.13
ATGATAAGGG	0.979 ± 0.013
ATGATACATA	1.02 ± 0.019
ATGATAGAAC	1.03 ± 0.015
ATGATATTTT	0.986 ± 0.027
ATGATCAATT	1.02 ± 0.049
ATGATGAGTT	0.986 ± 0.01
ATGATGCGGG	1.01 ± 0.044
ATGATGTCGG	1.03 ± 0.033
ATGATTAAGG	1.015 ± 0.0029
ATGATTAGTT	1.01 ± 0.046
ATGATTCCTT	1 ± 0.03
ATGATTTAGG	0.9998 ± 0.0095
ATGCACACCG	1.087 ± 0.0016

Sequence	switch fluorescence ratio
ATGCACGGAA	1.05 ± 0.036
ATGCACTGGT	1.01 ± 0.026
ATGCAGATTA	1.023 ± 0.0051
ATGCAGGCAC	1.03 ± 0.024
ATGCAGGGCT	0.962 ± 0.041
ATGCATAGTT	0.963 ± 0.017
ATGCATGCGT	1 ± 0.048
ATGCATTTGT	1.01 ± 0.031
ATGCCTCGGG	1.02 ± 0.032
ATGCGAAGG	0.98 ± 0.038
ATGCGAAGTG	1 ± 0.039
ATGCGACGGC	1.05 ± 0.028
ATGCGATGTA	1.04 ± 0.046
ATGCGCTTTT	1.03 ± 0.089
ATGCGGTGTG	0.978 ± 0.04
ATGCGTATTT	0.975 ± 0.039
ATGCGTCGGA	1.032 ± 0.0066
ATGCGTGAGG	1.011 ± 0.0037
ATGCTAAGTG	0.96412 ± 8.8e-05
ATGCTAATTA	1.02 ± 0.024
ATGCTATCGT	1.02 ± 0.014
ATGCTGACCT	1.01 ± 0.034
ATGCTTAGTC	0.964 ± 0.018
ATGCTTGCTG	0.9819 ± 0.0052
ATGGAAAAGG	0.9916 ± 0.0094

Sequence	switch fluorescence ratio
ATGGACAGGC	0.912 ± 0.014
ATGGACCGTT	1.02 ± 0.078
ATGGAGGCGC	0.981 ± 0.028
ATGGAGGTTA	0.9695 ± 0.0085
ATGGATATGG	1 ± 0.026
ATGGATCACC	1.019 ± 0.0027
ATGGATCGAT	0.967 ± 0.037
ATGGATGACT	1.04 ± 0.018
ATGGATTTTT	1.012 ± 0.0015
ATGGCAGACA	0.9836 ± 0.0036
ATGGCAGGGC	1.01 ± 0.016
ATGGCAGGTT	1.01 ± 0.021
ATGGCCTTAA	0.982 ± 0.028
ATGGCGGCGT	0.959 ± 0.035
ATGGCTATTC	0.979 ± 0.046
ATGGCTGGGC	1.005 ± 0.0042
ATGGCTTTTG	1.02 ± 0.037
ATGGGAACGG	0.994 ± 0.017
ATGGGAAGAC	1.06 ± 0.017
ATGGGACATT	1.03 ± 0.079
ATGGGACTTT	1.02 ± 0.037
ATGGGAGCTG	0.9831 ± 0.0037
ATGGGATTGG	0.962 ± 0.02
ATGGGATTTA	1.04 ± 0.024
ATGGGCACA	0.99899 ± 0.00092

Sequence	switch fluorescence ratio
ATGGGCACGT	0.983 ± 0.019
ATGGGCAGTG	1.02 ± 0.015
ATGGGCCCT	0.997 ± 0.031
ATGGGCCGCT	0.9835 ± 0.0087
ATGGGCGGTA	1.04 ± 0.052
ATGGGCTGCT	1.05 ± 0.062
ATGGGCTTCG	1.01 ± 0.034
ATGGGGAAAG	0.9876 ± 0.0034
ATGGGGAAGT	1.02 ± 0.02
ATGGGGAATG	0.984 ± 0.016
ATGGGGCACT	0.9789 ± 0.0042
ATGGGGCAGG	1.01 ± 0.033
ATGGGGCGGC	0.983 ± 0.026
ATGGGGGACA	0.981 ± 0.012
ATGGGGGCGT	0.994 ± 0.043
ATGGGGGTCC	1.01 ± 0.068
ATGGGGTACA	1.033 ± 0.0032
ATGGGGTAGC	0.995 ± 0.012
ATGGGGTGCG	0.9998 ± 0.0014
ATGGGGTTTG	0.974 ± 0.018
ATGGGTAATC	1.03 ± 0.026
ATGGGTCCGG	1.02 ± 0.037
ATGGGTGATA	0.9935 ± 0.0092
ATGGGTGGGG	1.01 ± 0.037
ATGGGTTGTT	1.01 ± 0.034
